T1: human CCR3 (human, UniProt P51677 1-355)
T1 construct: whole, on cells; also called chemokine receptor-3; hCCR3
T1 sequence (looked up): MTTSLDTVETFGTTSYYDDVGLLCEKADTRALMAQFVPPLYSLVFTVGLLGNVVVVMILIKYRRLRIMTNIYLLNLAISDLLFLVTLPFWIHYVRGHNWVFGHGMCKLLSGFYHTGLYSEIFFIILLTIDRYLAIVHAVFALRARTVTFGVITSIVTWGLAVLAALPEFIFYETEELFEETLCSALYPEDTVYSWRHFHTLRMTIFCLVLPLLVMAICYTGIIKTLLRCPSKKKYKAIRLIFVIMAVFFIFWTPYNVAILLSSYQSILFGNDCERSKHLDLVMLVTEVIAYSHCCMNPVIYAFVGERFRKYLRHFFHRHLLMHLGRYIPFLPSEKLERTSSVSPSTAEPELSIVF

T2: human D6 chemokine receptor (human, UniProt O00590 1-384)
T2 construct: whole, on cells
T2 sequence (looked up): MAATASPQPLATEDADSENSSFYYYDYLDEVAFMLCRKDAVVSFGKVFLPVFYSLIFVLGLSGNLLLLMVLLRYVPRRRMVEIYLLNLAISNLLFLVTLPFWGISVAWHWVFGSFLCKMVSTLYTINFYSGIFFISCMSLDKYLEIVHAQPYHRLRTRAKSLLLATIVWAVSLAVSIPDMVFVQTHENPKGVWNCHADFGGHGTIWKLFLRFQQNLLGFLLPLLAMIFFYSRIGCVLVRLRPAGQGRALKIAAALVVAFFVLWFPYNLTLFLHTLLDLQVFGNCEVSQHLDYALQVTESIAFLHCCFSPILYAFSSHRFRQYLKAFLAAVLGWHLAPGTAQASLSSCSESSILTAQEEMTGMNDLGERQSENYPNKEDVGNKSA


How the values were obtained:
human CCR3 [1] = target: T1, human CCR3; test: homologous displacement of 0.1 nM 125I-MCP4 from purified human eosinophils (CCR3)
Method: (§1) After washing with binding buffer containing 0.5M NaCl, the percentage of radio-iodinated ligand remaining bound was calculated compared to assays in which no unlabeled chemokine was added. Each point is the mean of three identical incubations and standard error is included. (C) 2×10⁵ purified eosinophils were incubated for 2 hrs at room temperature in azide-containing binding buffer with 45 nM ¹²⁵I-Met-Ckβ7* plus 500 nM of the various unlabeled chemokines indicated at the bottom of the graph. Cells were washed twice with PBS and remaining ¹²⁵I-Met-Ckβ7* bound was counted. Results are the mean of three identical incubations represented as a percentage of the binding seen in the absence of competitor, and standard error is included.
(§2) Eosinophil ¹²⁵I-Chemokine Binding Assay. 2×10⁵ purified eosinophils were placed in each well of a 96 well plate in binding buffer (1 mM CaCl₂, 5 mM MgCl₂, 0.5% BSA, 0.05% sodium azide, 50 mM Hepes (pH 7.5)). Iodinated chemokine (final concentration of 0.1 nM ¹²⁵I-eotaxin or ¹²⁵I-MCP4, specific activity 2200 Ci/mmol (NEN, Boston, Mass.)) was added in the absence or presence of unlabeled chemokines to a final volume of 100 μl. […] The plates were dried and counted after addition of 50 μl of liquid scintillant in each well. […] Cells were then washed twice with ice cold PBS and counted in a Beckman Gamma 5500B counter. […]

human CCR3 [2] = target: T1, human CCR3; test: displacement of 0.1 nM 125I-eotaxin from purified human eosinophils (CCR3)
Method: as §1, §2

[3] = target: T2, human D6 chemokine receptor; test: displacement of 125I-MIP1α in binding assays on CHO cells expressing D6 (not shown)
human CCR3 [4] = target: T1, human CCR3; test: displacement of 0.1 nM 125I-MCP4 from purified human eosinophils (CCR3)
Method: as §1, §2

human CCR3 [5] = target: T1, human CCR3; test: displacement of 0.1 nM 125I-eotaxin from 2x10^5 purified human eosinophils (CCR3), 60 min at room temperature
Method: as §1, §2

human CCR3 [6] = target: T1, human CCR3; test: homologous displacement of 0.1 nM 125I-eotaxin from purified human eosinophils (CCR3)
Method: as §1, §2

Chain of eotaxin (P51671 24-97 limits assumed): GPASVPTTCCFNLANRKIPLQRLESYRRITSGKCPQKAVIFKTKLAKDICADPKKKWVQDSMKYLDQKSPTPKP

| IC50 (human CCR3 [1]) | IC50 (human CCR3 [2]) | binding result [3] | IC50 (human CCR3 [4]) | IC50 (human CCR3 [5]) | IC50 (human CCR3 [6]) | Binder |
| --- | --- | --- | --- | --- | --- | --- |
| ~25 nM | ~60 nM | – | – | – | – | MCP4 (ligand, also called monocyte chemotactic protein-4; Ckβ-10) not shown |
| – | – | no binding (tested: 700 nM) | ~5 nM | ~6 nM | – | Met-Ckβ7* (ligand, E. coli-produced modified form of Ckβ7/MIP4: signal peptide removed, N-terminal Ala of the mature protein replaced by Met, C-terminus LKLMPEA; also called Met-22-87-Met-Pro-Glu-Ala; hg00701-e2) MQVGTNKELCCLVYTSWQIPQKFIVDYSETSPQCPKPGVILLTKRGRQICADPNKKWVQKYISDLKLMPEA |
| – | – | – | ~5 nM | – | ~10 nM | eotaxin (ligand, also called human eotaxin) not shown |
